Laboratory results: article PMC11375965 (Nature, 2024)

Biological target: the molecule itself
Assay: cryo-EM structure

B1: human INF2 (inverted formin-2) residues 469-1249 (domain or fragment)
chain: not shown
B1: binds.
